Measurements published in the nanobody polyreactivity screen of Harvey et al. (2022).

assay: yeast display, Sf9 membrane polyspecificity reagent, FACS + sequencing; frameworks hold sequencing errors
Summary of the method: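 Nanobodies from a synthetic yeast display library (Saccharomyces cerevisiae BJ5465), induced 36–48 hours with galactose, were stained 1 hour at 4 °C with 10% biotinylated, detergent-solubilized Sf9 membrane reagent, enriched on streptavidin microbeads, then FACS-sorted. Anti-HA (expression) and streptavidin (reagent binding) fluorescence set low and high (top ~1%) gates. Polyreactivity labels come from the gate of origin. Genes were colony-PCR amplified, MiSeq 2 × 250 sequenced and filtered by CDR length.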

Row | Sequence | polyreactivity (PSR sort gate)
1 | QVQLVESGGGLVQAGGSLRLSCAASGRIFLYYTMGWYRQAPGKERELDAAITRSGGSTYYADSVKGRFTISRDNAKNTVYLQMNSLKPEDTAVYYCNRAYVRYVPMNYWGQGTQVTVSS | high polyreactivity
2 | QVQRVESGGGLVQAGGSLRLSCAASGSTFYDNTMGWYRPAPGKERELVAAITGTGGNTYYADSVKGRFTISRDNAKNTDYLQMNSLKPEDTAVYYWNRVPVYYYRYGYWGQGTQVTVSS | low polyreactivity
3 | QVQLVESGGGLVQAGGTLRLSCAASGSIFWSYAMGWYRQAPGKEREFVASITGSGGTTTYADSVKGRFTISRDNAKNTVYLQMISLKPEDTAVYYCNARLHGWYHVYYIYDYWGQGTQVTVSS | low polyreactivity
4 | QVQLVESGGGLVQAGGSLRLSCAASGYIFIGYAMGWYRQAPGTERELVATITSGGSTNYADSVKGRFTISRDNAKNTVYLQMNSLNPEETAVYNCAAGRGRYCYSWRYLYAIFDYWGQGTQVTVSS | low polyreactivity
5 | QVQLVESGGGLVQAGGSLRLSCAASGFTFRYYAMGWYRQAPGKEREFVAAISWSGGSTYYADSVKGRFTISRDNAKNTVYLQMNSLKPEDTAVYYCNRVPRARKGDYWGQGTQVTVSS | high polyreactivity
6 | QVQLVESGGGLVQAGGSLRLSCAASGLTFSLYALGWYRQAPGKERELVAAISWTGGSTYYADSVKGRFSISRDNAKNTVYLQMKSLKPEDTAVDYCNARYTLFARYGYDYWGQGTQVTVSS | low polyreactivity
7 | QVQLVESGGGLVQAGGSLRLSCAASGSIFSVYAMGWYIQAPGKEREFVASISGGSGRTYYADSVKGRFTISRDNAKNTVYLQMNSLKPEDTAVYYCAAAYWAYDTGKMGYWGQGTQVTVSS | low polyreactivity
8 | QVQLLESGGGLDQAGGSLRLTSAASGSIFYGYAMGWYRQAPRKERELVAAISYSGDRTYYADSVKGRFTISRDNAKNTVYLQMNSLKPEDTAVYYCAARKHGGTVRGRRDYWGQGTQVTVSS | high polyreactivity
9 | QVHLVETGRGLLQSGGSLRISCAASGRTFIYNAMGWYRQAPGKERELVARISSGGGNTYYAYSVKWRFTISRDNANNTVYLLMNSLKPEDTAVYYCAIGWRPSFSYYWGQGTQVTVSS | high polyreactivity
10 | QVQLVESGGGLVQAGGSLRLSCAASGRTFSHYAMGWYRQAPGKERELVAGISSGSRTNYADSVKGRFTISRDNAKNTVYLQMNSLKPEDTAVYYCAARTKYLKGGYWGQGTQVTVSS | high polyreactivity
11 | QVQLVESGGGLVQAGGSLRLSCAASGLNFSYYAMGWYRQAPGKERELVAAINSGGSTYYADSVKGRFTISRDNAKNTVYLQMNRLKQEDTAVYYCAAHLWYHGHLFDYWGQGTQVTVSS | high polyreactivity
12 | QVQLVESGGGLVQAGGRLRLSCAASGIIFKYNAMGWYIQAPGKEREFVAAITGSGGSTYYADSVKGRFTISRDNAKNTVYLQMNSLKPEDTAVYYCARPQWRDWYGYWGQGTQVTVSS | low polyreactivity
13 | QVQLVESGGGLVQAGGSHRLSCAASARIFYLYAMGWYRQAPGKERELVAAISRSGSSTYYADSVKGRFTISRDNPKNTVYLEMNSLKPEDTAVYYFADLRYRPVHQDHYDYWGQGTQVTVSS | high polyreactivity
14 | QVQLVESGGGLVQAGGSLRLSCAASGSTLVGNTMGWYRQAPGKERELVAAITGVGSRNYADSVKGRFTISRDNAKNTVYLQMNSLKPEDTALYYCAAETWYSVLWEEGYDYWGHGTQVTVSS | low polyreactivity
15 | QVQLVESGGGLVQAGGSLRLSCAASGIIFITYAMGWYRQAPGKERELVAAITNSGGGTYYADSVKGRFTISRDNAKNTVYLQMNILKPEATAVYYCAARKTAYGYRYDYWGQGTQVTVSS | high polyreactivity
16 | QVQLVESGGGLVQAGGSLRLSCAASGITFLPYTMGWYRQAPGKERELVATISWNGGSTYYADSVKGRFTISRDNAKNTVYLQMNSLKPEDTAVYYCAARQVQAPRSIGFYYWGQGTQVTVSS | high polyreactivity
17 | QVQLVESGGGLVQAGGSLRLSCAASGITFAGYTMGWYRQAPGKERELVAAISWRTGSTYYADSVKGRFTISRDTAKNTVYLQMNSLKPEDTAVYYCAARVPSPYVATYYYWGQGTQVTVSS | high polyreactivity
18 | QVQLVESGGGLVQAGGSLRLSCAASGFTFTYNDMGWYRQAPGKEREFVAAISSTGGSTNYADSVKGRFTISRDNAKNTVYLQMNSLKPEDTAGYYCATESYDSYGLYDYWGQGTQVTVSS | low polyreactivity
19 | QVHLVESAGGLLQAAASLRLSGDASGSIISSYAMGWYRQAPGKERQLVAAITRSGGSTYYADSVKGRFTISRDYAKKTVYLQMNSLNPEDTAVYYCAARSYVHVFVRMYYWGQGTQVTVSS | high polyreactivity
20 | QVQLVESGGGLVQAGGSLRLSCAASGSTFKAYAMGWYRQAPGKERELVAAITNSDGDTYYADSVKGRFTISRDNAKNTVYLQMNSLKAEDTAVYYCNALYFLKKLYDYWGQGTQVTVSS | low polyreactivity
21 | QVQLVESGGGLVQAGGSLRLSCAASGLTFVANAMGWYRQAPGKERELVAAISRRGTRTYYADSVKGRFTISRDNAKNTVYLQMNSLKPEDTAVYYCAAEYNSEYDYWGQGTQVTVSS | high polyreactivity
22 | QVQLVESGGGLVQAGGSLRLSCAASGSTFSGYAMRWYRQAPGKERELVATITRRGGNTYDADSVKGGFTISRDNAKNTVYLQMNSLKPEDTAVYYCAKEGRVQSPYHYWGQGTQVTVSS | low polyreactivity

Row | Sequence | polyreactivity (PSR sort gate)
23 | QVQLVESGGCLVQAGGSLRLSCAASGYIFGYNAMGWYRQAPGKERELVAAISYSGGSTYYADSVKGRFTISRDNAKNTVYLQMNSLKPVDTAVYYCAAGAKWIYHYYSSLQYGYWGQGTQVTVSS | high polyreactivity
24 | QVQLEESGGGLVQAGGSLRLSCAASGSIFAPYVMGWYRQATGKERELVAAITESGGRTYYADSVKGRFTISRDNAKNTVYLQMNSLKPEDTAVYYCAARTYDRNRQLRRQWYDYWGQGTQVTVSS | high polyreactivity
25 | QVQHVESGGGLVQAGGSLRLSCAASGSIIPSNVMGWYRQATGKEREFVAGITFRVGSTYYADSVKGRFTISLDNAKNTVYLQMNSLKPEDTAVYYCAALIRAVDRYTYRYGYWGQGTQVTVSS | high polyreactivity
26 | QDQLVESGGGLVQAGVSLRLICPASGLTFYTYAMGSYRQAPGKERELVAAIRRRGGRTYYADSVKGRFTISRDNAKNTVFLQMNSLKPEDTAVYYCAADYSTLFKYDYWGQGTQVTVSS | low polyreactivity
27 | QVQLVESGGGLVQAGGSLRLSCAASGSTFDHNAMGWYRQAPGKEREFVAAISARGGITYYADSVKGRFTISRDNAKNTVYLQMNSLKPEDTAVYYCADVFGDYWSSQWSYAYGYWGLGTQVTVSS | high polyreactivity
28 | QVQLVESGGGLVQAGGSLRLSCAASGGIFKRNTMGWYRQAPGKERELGAGISWTGGRTYYADSVKGRFTISRDTAKNTVYLQMNSLKPEDTAVYYCAAKPLQGVRRVEYWGQGTQVTVSS | high polyreactivity
29 | QVQLVESGRGLVQAGGSLRLSCAASGSIFGGNGRGWSRQAPGKERELVAAITYSGGSTYYADSVKGRFTISRDNAKNTVYFQMNSLKPEDTAVYYCAKPSRVSIGYDYWGQGTQVTVSS | low polyreactivity
30 | QVQLVESGGGLVQAGGSLRLSCAASGFIKFYAMGWYRQAPGKERELVASISSGGRTNYADSVKGRFTISRDNAKNTVYLQMNSLKPEDTAVYYCAAIGWRTRSRFEYWGQGTQVTVSS | high polyreactivity
31 | QVQLVESGGGLVQAGGSLRLSCAASGRTFGVYAMGWYRQAPGKERELVATIRTTGSTNYADSVKGRFTISRDNAKYTVYLQMNSVKTEDTAVYYCAARLRQSKYYPYTTFTYDYWGQGTQVTVSS | high polyreactivity
32 | QVQLVESGGGLVQAGGSLRLSCAASGRIFDPYAMGWYRQAPGKERELVAAINIGGGTNYADSVKGRFTISRDNAKNTVYLQMNSLKPEDTAVYYCAAPVPAYQFYYRLKSFGRRYDHWGQGTQVTVSS | low polyreactivity
33 | QVQLVESGVGLVQAGGSLRLICAASGSTFYRNAMGWYRHAPGKERELVAGISRRGGSTYYADSVKGRFTISRDIAKNRVYLQMNSLIPEDTAVYYCNADYPGIPHNDYWGQGTQVNVSS | low polyreactivity
34 | QVQLVESGRGLVQAGGSLRLSCAASGFTFRYYAMGWYRQAPGTERELVAAITYSGGGTYYADSVKGRFTISRDNANYTVYLQMNSLKPEDSAVYYCARRGRKAYAYWGQGTQVTVSS | high polyreactivity
35 | QVQLVESGGGLVQAGGSLRLSCAASGRTLPSYAMGWYRQAPGKERELVAAITGSGGRTYYADSVKGRFTISRDNAKNTVYLQMNSLKPEDTAVYYCAARQDDYGKINYYWGQGTQVTVSS | high polyreactivity
36 | QVQLVESGGGLVQAGGSLRLSCAASGSTFAYNTMGWYRQAPGKERELVAAISQRGGSTYADSVKGRFTISRDNAKNTVYLQMNSLKPEVTAVYYCNKRNVYYSYPFDYDYWGQGTQVTVSS | low polyreactivity
37 | QVQLVESGGGLVQAGGSLRLSCAASGFTFGSYAMGWYRQAPGKEREFVAAIRRSGSSTYYADSVKGRFTISRDNAKNTVYLQMNSLKPEDTAVYYCAADVYRRLRRYRYYYWGQGTQVTVSS | low polyreactivity
38 | QVQLVETGGGLVQAGGSLRLSCAASGSTFESNTMGWYRQAPGKERELVAAISYSGGRTYYADSVKGRFTISRDNAKNTVYLQMNSLKPEDTAVYYCAARWSVSYQYWGQGSQVTVSS | high polyreactivity
39 | QVQLVESGGGLVQAGGSLRLSCAASGSIFRLNAMGWYRQAPGKERELVAAITSSGGNTYYADSVKGRFTISRDNAKNTVYLQMNSLKPEDTAVYYCATRAYARWYGYWGQGTQVTVSS | low polyreactivity
40 | QVQLVESGGALVQAGGSLRLSCAASGSISWKNAMGWYRKAPGKERELVAAISSTVTYYADSVKGRFTISRDNAKNTVYLQMNRLKPADTAVYYCAAEYLAYTTLYTGDYWGQGTQVTVSS | low polyreactivity
41 | QVQLVESGGGLVQAGGSLRLSCAASGFTFYYYAMGWYRQAPGKERELVAAIDTSDGSTYYADSVKGRFTISRDNAKNTVYLQMNSLKPEDTAVYYCAAEVDCVPFLLDYWGQGTQVTVSS | low polyreactivity
42 | QVQLVESGGGLVQAGGSLRLSCAASGFTFYGNAMGWYRQAPGKERDLVAAITGRAGRTYYADSVKGRFTISRDNSKNTVYLQMNSLKPEDTAVYYCAVQVAQSRTFSTYGYWGQGTQVTVSS | high polyreactivity
43 | QVQLVESGGGLVQAGGSLRLSCAASGSTFYYGMGWYRQAPGKERELVAAISSRGGTTYYADSVKGRFTISRDNAKNTVYLQMNSLKPEDTAVDYCAAPVPYYVPRRNEGDYWGQGTQVTVSS | low polyreactivity
